T1: fH67 (UniProt P08603 321-443)
T1 construct: domain: fH67; Flowed as analyte over immobilised fHbps in SPR; also called factor H
T1 sequence: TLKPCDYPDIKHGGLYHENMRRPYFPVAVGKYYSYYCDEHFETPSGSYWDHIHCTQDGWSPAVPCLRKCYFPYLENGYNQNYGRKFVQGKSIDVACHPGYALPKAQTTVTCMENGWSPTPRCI


Tests used:
fH67 [1] = target: T1, fH67; assay: SPR, fHbp immobilised on sensor chip, fH67 flowed over
Protocol: Kd values for fH₆₇ binding to the stable V2 fHbps were calculated from the sensogram (fH₆₇ binding to WT V2 fHbp shown in Appendix 3a) and compared to fH₆₇ binding to WT V2 fHbp (Table 3).

fH67 [2] = target: T1, fH67; assay: SPR, fHbp immobilised on sensor chip, fH67 flowed over; mean ± SD of two determinations

Binder	Relative Kd (fH67 [1]) [fold against WT V2 fHbp]	Kd (fH67 [2]) [nM]
WT V2 fHbp (other, also called wild type V2 fHbp; V2WT) CSSGGGGVAADIGAGLADALTAPLDHKDKSLQSLTLDQSVRKNEKLKLAAQGAEKTYGNGDSLNTGKLKNDKVSRFDFIRQIEVDGQLITLESGEFQIYKQDHSAVVALQIEKINNPDKIDSLINQRSFLVSGLGGEHTAFNQLPSGKAEYHGKAFSSDDPNGRLHYSIDFTKKQGYGRIEHLKTPEQNVELASAELKADEKSHAVILGDTRYGGEEKGTYHLALFGDRAQEIAGSATVKIREKVHEIGIAGKQ	1	3.18
M5 V2 fHbp (S35G/D107S/L114F/S137G/G138D) (other) CSSGGGGVAADIGAGLADALTAPLDHKDKGLQSLTLDQSVRKNEKLKLAAQGAEKTYGNGDSLNTGKLKNDKVSRFDFIRQIEVDGQLITLESGEFQIYKQSHSAVVAFQIEKINNPDKIDSLINQRSFLVGDLGGEHTAFNQLPSGKAEYHGKAFSSDDPNGRLHYSIDFTKKQGYGRIEHLKTPEQNVELASAELKADEKSHAVILGDTRYGGEEKGTYHLALFGDRAQEIAGSATVKIREKVHEIGIAGKQ	3.84	12.2
M4B V2 fHbp (S35G/L114F/S137G/G138D) (other) CSSGGGGVAADIGAGLADALTAPLDHKDKGLQSLTLDQSVRKNEKLKLAAQGAEKTYGNGDSLNTGKLKNDKVSRFDFIRQIEVDGQLITLESGEFQIYKQDHSAVVAFQIEKINNPDKIDSLINQRSFLVGDLGGEHTAFNQLPSGKAEYHGKAFSSDDPNGRLHYSIDFTKKQGYGRIEHLKTPEQNVELASAELKADEKSHAVILGDTRYGGEEKGTYHLALFGDRAQEIAGSATVKIREKVHEIGIAGKQ	3.92	12.5
M6 V2 fHbp (S35G/D107S/V112T/L114F/S137G/G138D) (other) CSSGGGGVAADIGAGLADALTAPLDHKDKGLQSLTLDQSVRKNEKLKLAAQGAEKTYGNGDSLNTGKLKNDKVSRFDFIRQIEVDGQLITLESGEFQIYKQSHSAVTAFQIEKINNPDKIDSLINQRSFLVGDLGGEHTAFNQLPSGKAEYHGKAFSSDDPNGRLHYSIDFTKKQGYGRIEHLKTPEQNVELASAELKADEKSHAVILGDTRYGGEEKGTYHLALFGDRAQEIAGSATVKIREKVHEIGIAGKQ	19.3	61.3
M4A V2 fHbp (S35G/D107S/S137G/G138D) (other) CSSGGGGVAADIGAGLADALTAPLDHKDKGLQSLTLDQSVRKNEKLKLAAQGAEKTYGNGDSLNTGKLKNDKVSRFDFIRQIEVDGQLITLESGEFQIYKQSHSAVVALQIEKINNPDKIDSLINQRSFLVGDLGGEHTAFNQLPSGKAEYHGKAFSSDDPNGRLHYSIDFTKKQGYGRIEHLKTPEQNVELASAELKADEKSHAVILGDTRYGGEEKGTYHLALFGDRAQEIAGSATVKIREKVHEIGIAGKQ	2.39	7.6

Source: US20150190494A1 (OXFORD UNIVERSITY INNOVATION, published 2015)
